Data on 2 substances can be found in paper PMC3172256.

This assay deals with CD16.7-PC1-WT (human) (UniProt P08637). The experiment in a line: co-IP.

Substance “Rab8, human, endogenous (from UniProt P61006 1-207) (natural protein)” came in with a fold coprecipitation above the background of untransfected cell lysates of 2 fold.

On to “Rab11, human, endogenous (from UniProt P62491 1-216) (natural protein)”, for which the fold coprecipitation above the background of untransfected cell lysates came out at 1.3 fold.
